According to paper PMC5428028, “Role for the ATPase inhibitory factor 1 in the environmental carcinogen-induced Warburg phenotype” (Scientific Reports, 2017):

Molecular target: the molecule itself
Test: western blot (band of dimer size after electrophoresis); mitochondrial fractions of F258 cells exposed to B[a]P (50 nM or 1 µM, 48 h), lysed in RIPA buffer; 24 kDa band beside the 12 kDa monomer; gel conditions not shown

B1: ATPase inhibitory factor 1 (IF1) (natural protein, rat (endogenous in F258), UniProt Q03344 26-107, looked up)
chain: GSDSSESMDSGAGSIREAGGAFGKREKAEEDRYFREKTREQLAALKKHHEDEIDHHSKEIERLQKQIERHKKKIKYLKNSEH
notes: monomeric form printed as 12 kDa, dimer band as 24 kDa; Detected with a polyclonal rabbit anti-ATPIF1 antibody, used only as a tool; The western blot methods are in the Supplementary Information; also called ATPIF1; source: endogenous, mitochondrial fraction of F258 rat liver epithelial cells, lysed in RIPA buffer
- stoichiometry N: 2
